Literature values, collected in paper PMC5852440.

Target: EphB4 (Homo sapiens) (UniProt P54760)
Sequence of UniProt P54760 (P54760 16-539): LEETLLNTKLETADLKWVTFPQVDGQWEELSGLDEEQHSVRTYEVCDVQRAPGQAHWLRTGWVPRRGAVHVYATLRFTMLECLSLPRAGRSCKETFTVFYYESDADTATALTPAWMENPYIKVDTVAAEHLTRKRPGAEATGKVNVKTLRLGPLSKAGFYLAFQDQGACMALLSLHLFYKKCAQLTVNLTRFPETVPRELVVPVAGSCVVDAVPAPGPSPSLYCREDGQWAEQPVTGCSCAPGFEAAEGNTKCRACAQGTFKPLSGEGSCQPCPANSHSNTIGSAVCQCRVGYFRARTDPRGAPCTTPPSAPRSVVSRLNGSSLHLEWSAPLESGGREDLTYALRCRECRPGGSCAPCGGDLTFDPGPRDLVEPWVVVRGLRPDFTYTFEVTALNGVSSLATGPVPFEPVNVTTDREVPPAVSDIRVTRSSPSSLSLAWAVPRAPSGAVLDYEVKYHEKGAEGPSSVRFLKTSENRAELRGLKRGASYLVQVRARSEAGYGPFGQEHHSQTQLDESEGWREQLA

Kd: 0.88 µM
Substance: Epo (from UniProt P01588)
